Source: patent US20260217825A1 (CHIMAGEN BIOSCIENCES, published 2026)
Positions count from the first letter of the chain named. Names may count otherwise. Where two headings read alike, the source gives them in different places.

Legend:
human GPRC5D on cells [1] = biological target: T1, human GPRC5D on cells (human, UniProt Q9NZD1 1-345); test: FACS on HEK293 cells expressing hGPRC5D (sheet title: 293T-hGPRC5D sorted), anti-human IgG Fc-APC secondary; fit table under the curves
T1 construct: whole, on cells; Either overexpressed in HEK293, CHOS or HEK293T cells, or naturally expressed on human myeloma cell lines; also called hGPRC5D; HEK293-hGPRC5D
Procedure: (§1) After centrifugation, […] and CHOS-hGPRC5D cells expressing hGPRC5D were resuspended in a DPBS solution (FACS buffer, 4° C.) containing 2% BSA, added to a 96-well plate with a U-shaped bottom in an amount of 5×10⁵ cells/100 μl/well, added with antibody diluted over concentration gradient, and incubated at 4° C. for 1 hr. After centrifugation, the supernatant was discarded. 100 μl of anti-human IgG Fc-APC secondary antibody was added to each well and incubated at 4° C. for 1 hr. Then the cells were washed once with a FACS buffer, and resuspended in 200 μl FACS buffer. The fluorescence signal was read on BD CantoII.

human GPRC5D on cells [2] = biological target: T1, human GPRC5D on cells; test: flow cytometry, NCI-H929 cell binding
Procedure: (§2) After the cells were digested with TrypLE, the digested cells were centrifuged and resuspended in a DPBS solution containing 2% BSA (FACS buffer, 4° C.), added into a 96-well plate with a U-shaped bottom in an amount of 5× 10⁵ cells/100 μl/well, added with antibody diluted over concentration gradient, and incubated at 4° C. for 1 hr. After centrifugation, the supernatant was discarded. 100 μl of anti-human IgG Fc-APC secondary antibody was added to each well and incubated at 4° C. for 1 hr. Then the cells were washed once with a FACS buffer, and resuspended in 200 μl FACS buffer. The fluorescence signal was read on BD CantoII.

human GPRC5D on cells [3] = biological target: T1, human GPRC5D on cells; test: FACS on CHOS cells expressing hGPRC5D (sheet title: CHOS-hGPRC5D sorted), anti-human IgG Fc-APC secondary; fit table under the curves, unit from the axis Log Conc.(ug/ml)
Procedure: as §1

human GPRC5D on cells [4] = biological target: T1, human GPRC5D on cells; test: FACS on RPMI-8226 cells (natural GPRC5D), anti-human IgG Fc-APC secondary; fit table under the curves
Procedure: as §2

human GPRC5D on cells [5] = biological target: T1, human GPRC5D on cells; test: FACS on CHOS cells expressing hGPRC5D (sheet title: CHOS-hGPRC5D sorted), anti-human IgG Fc-APC secondary; fit table under the curves
Procedure: as §1

human GPRC5D on cells [6] = biological target: T1, human GPRC5D on cells; test: flow cytometry, MM.1R cell binding
Procedure: as §2

human GPRC5D on cells [7] = biological target: T1, human GPRC5D on cells; test: FACS on NCI-H929 cells (natural GPRC5D), anti-human IgG Fc-APC secondary; fit table under the curves
Procedure: as §2

human GPRC5D on cells [8] = biological target: T1, human GPRC5D on cells; test: flow cytometry, RPMI-8226 cell binding
Procedure: as §2

human GPRC5D on cells [9] = biological target: T1, human GPRC5D on cells; test: FACS on MM.1R cells (natural GPRC5D), anti-human IgG Fc-APC secondary; fit table under the curves
Procedure: as §2

human GPRC5D on cells [10] = biological target: T1, human GPRC5D on cells; test: FACS on HEK293 cells expressing hGPRC5D (sheet title: 293T-hGPRC5D sorted), anti-human IgG Fc-APC secondary; fit table under the curves, unit from the axis Log Conc.(ug/ml)
Procedure: as §1

[11] = biological target: T2, recombinant GPRC5D antigen (Human GPRC5D protein-Flag-His tag (51.8KD) ACRO Cat: GPD-H52D3) (human, UniProt Q9NZD1 1-345, limits assumed); test: BLI (Octet R8), recombinant GPRC5D antigen
T2 construct: Bought protein; also called CPRG5D; not shown: Flag-His tag
From the text: The recombinant GPRC5D antigen (Human GPRC5D protein-Flag-His tag (51.8KD) ACRO Cat: GPD-H52D3) was immobilized on a chip and detected by Octet® R8 biomolecular interaction analysis system.

[12] = biological target: T3, cynomolgus monkey GPRC5D on HEK293T cells (cynomolgus monkey); test: cell-based binding assay on HEK293T-cynoGPRC5D
T3 construct: whole, on cells; also called HEK293T-cynoGPRC5D; Cynomolgus GPRC5D
Procedure: (§3) HEK293T-hGPRC5D or HEK293T-cynoGPRC5D cells in logarithmic growth phase were inoculated into a 96-well culture plate, and the antibodies at different concentrations (200, 66.7, 22.22, 7.41, 2.47, 0.82, 0.27, 0.09, 0.03, and 0.01 nM) was added. 2 duplicate wells were set for each concentration and a negative control (PBS) well was also set. The cells were incubated at 25° C. for about 60 minutes and then developed and detected. The raw data of the test was the difference between the detection wavelength and the reference wavelength. A dose-response curve was fitted using statistical software, based on OD value and the logarithmic value of the concentration, from which the EC50 was obtained.

[13] = biological target: T4, recombinant CD3e antigen (Human CD3 epsilon Protein, His Tag, ACRO Cat: CDE-H5223) (human, UniProt P07766 23-126); test: BLI (Octet R8), recombinant CD3e antigen
T4 construct: Bought protein; also called CD3 antigen; not shown: His tag
From the text: (§4) The recombinant CD3e antigen (Human CD3 epsilon Protein, His Tag, ACRO Cat: CDE-H5223) and recombinant GPRC5D antigen (Human GPRC5D protein-Flag-His tag (51.8KD) ACRO Cat: GPD-H52D3) were immobilized on a chip and detected by Octet® R8 biomolecular interaction analysis system.

human GPRC5D on cells [14] = biological target: T1, human GPRC5D on cells; test: cell-based binding assay on HEK293T-hGPRC5D
Procedure: as §3

[15] = biological target: T2, recombinant GPRC5D antigen (Human …); test: BLI (Octet R8), recombinant GPRC5D antigen; remark: listed apart in the source
From the text: as §4

T1 sequence (Q9NZD1 whole entry): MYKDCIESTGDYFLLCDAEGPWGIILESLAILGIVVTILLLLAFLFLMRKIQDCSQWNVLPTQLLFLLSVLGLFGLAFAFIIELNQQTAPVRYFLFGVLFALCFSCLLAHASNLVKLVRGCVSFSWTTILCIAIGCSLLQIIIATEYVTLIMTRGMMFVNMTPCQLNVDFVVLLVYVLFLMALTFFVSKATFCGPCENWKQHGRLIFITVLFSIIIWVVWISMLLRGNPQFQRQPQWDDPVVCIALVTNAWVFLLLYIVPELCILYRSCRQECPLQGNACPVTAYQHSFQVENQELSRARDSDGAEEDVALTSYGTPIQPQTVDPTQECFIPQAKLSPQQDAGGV
T2 sequence (Q9NZD1 whole entry): as above
T4 sequence (P07766 23-126 limits assumed): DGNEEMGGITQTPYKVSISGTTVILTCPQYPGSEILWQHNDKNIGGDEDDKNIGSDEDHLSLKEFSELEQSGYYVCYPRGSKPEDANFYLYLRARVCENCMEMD

B1: ch-72C7 chimeric recombinant antibody (antibody, V domains shown)
VH: QVQLQQPGAELVKPGTSVKLSCKASGYPFTNYWMHWVRQRPGQGLEWIGEINPSNGRTNYNEKFKSLATLTLDKSSSTAYMHLNSLTSEDSAVYYCARGFAYWGQGTLVTVSA
VL: QIVLSQFPAIMSASPGEKVTMTCSASSSVSFMHWYQQKSGTSPKRWIYDTTKLASGVPARFTGSGSGTSYSLTISSMEAEDAATYYCQQWNSHPLTFGPGTKLELK
notes: also called ch-72C7 antibody; antibody ch-72C7
Which results are given for B1?
LogEC50 (human GPRC5D on cells [1]): -0.309 log(ug/ml); EC50 (human GPRC5D on cells [2]): 0.485 µg/mL; EC50 (human GPRC5D on cells [3]): 1.58 µg/mL; LogEC50 (human GPRC5D on cells [4]): -0.0379 log(ug/ml); LogEC50 (human GPRC5D on cells [5]): 0.198 log(ug/ml); EC50 (human GPRC5D on cells [6]): 0.62 µg/mL; LogEC50 (human GPRC5D on cells [7]): -0.314 log(ug/ml); EC50 (human GPRC5D on cells [8]): 0.916 µg/mL; LogEC50 (human GPRC5D on cells [9]): -0.207 log(ug/ml); EC50 (human GPRC5D on cells [10]): 0.49 µg/mL

B2: humanized antibody 22Mono5UQY (antibody, human IgG1, V domains shown)
VH: QVQLQESGPGLVKPSETLSLTCTASGYPFTNYWMHWVRQPPGKGLEWIGEINPSNGRTNYNEKFKSRATLSLDKSKNQASLNLDSVSAADTAIYYCARGFAYWGKGSTVTVSS
VL: AIQLTQSPSSLSASVGDRVTITCSASSSVSFMHWYQQKPGKAPKRWIYDTTKLASGVPSRFSGSGSGTDYTFTISSLQPEDIATYYCQQWNSHPLTFGPGTKVDIK
notes: also called 22MonoSUQY
Which Kd [11] does the source give for B2 here?
The Kd was 5.67 nM.

And the koff [11]?
Its koff is 0.000489 s⁻¹.

What about the kon [11] of the same binder?
The kon was 86200 M⁻¹ s⁻¹.

B3: humanized CD3xGPRC5D bispecific antibody 22A8 (Structure D) (bispecific antibody)
heavy 1: QVQLVQSGAEVKKPGSSVKVSCRASGYPFTNYWMHWVRQAPGQGLEWIGEINPSNGRTNYNEKFKSRATLTLDKLTSTAYMELSSLTSEDTALYYCARGFAYWGQGTLVTVSSASTKGPSVFPLAPSSKSTSGGTAALGCLVKDYFPEPVTVSWNSGALTSGVHTFPAVLQSSGLYSLSSVVTVPSSSLGTQTYICNVNHKPSNTKVDKKVEPKSCDKTHTCPPCPAPPVAGPSVFLFPPKPKDTLMISRTPEVTCVVVDVSQEDPEVKFNWYVDGVEVHNAKTKPREEQFNSTYRVVSVLTVLHQDWLNGKEYKCKVSNKGLPSSIEKTISKAKGQPREPQVYTLPPSRDELTKNQVSLSCAVKGFYPSDIAVEWESNGQPENNYKTTPPVLDSDGSFFLVSKLTVDKSRWQQGNVFSCSVMHEALHNRFTQKSLSLSP
light: EIVLTQSPGTLSLSPGERATLSCSASSSVSFMHWYQQKPGQAPRRWIYDTTKLASGIPDRFSGSGSGTDYTLTISRLEPEDFAVYYCQQWNSHPLTFGQGTTVEIKRTVAAPSVFIFPPSDEQLKSGTASVVCLLNNFYPREAKVQWKVDNALQSGNSQESVTEQDSKDSTYSLSSTLTLSKADYEKHKVYACEVTHQGLSSPVTKSFNRGEC
heavy 2: EVQLVESGGGLVQPGGSLRLSCAASGFTFSTYAMNWVRQAPGKGLEWVGRIRSKYNNYATYYADSVKGRFTISRDDSKNSLYLQMNSLRAEDTAVYYCVRHGNFGTSYVSWFAYWGQGTLVTVSSASTKGPSVFPLAPSSKSTSGGTAKLGCLVKDYFPEPVTVSWNSGALTSGVHTFPACLQSSGLYSLSSVVTVPSSSLGTQTYICNVNHKPSNTKVDKKVEPKSSDKTHTCPPCPAPELLAGPDVFLFPPKPKDTLMISRTPEVTCVVVDVSHEDPEVKFNWYVDGVEVHNAKTKPREEQYNSTYRVVSVLTVLHQDWLNGKEYKCKVSNKALPLPEEKTISKAKGQPREPQVYTLPPSRDELTKNQVSLWCLVKGFYPSDIAVEWESNGQPENNYKTTPPVLDSDGSFFLYSKLTVDKSRWQQGNVFSCSVMHEALHNHYTQKSLSLSP
chain: QVQLVQSGAEVKKPGSSVKVSCRASGYPFTNYWMHWVRQAPGQGLEWIGEINPSNGRTNYNEKFKSRATLTLDKLTSTAYMELSSLTSEDTALYYCARGFAYWGQGTLVTVSSASTKGPSVFPLAPSSKSTSGGTAALGCLVKDYFPEPVTVSWNSGALTSGVHTFPAVLQSSGLYSLSSVVTVPSSSLGTQTYICNVNHKPSNTKVDKKVEPKSCDGGGGSGGGGSQAVVTQEPSLTVSPGGTVTLTCRSSTGAVTTSNYANWVQQKPGQAPRGLIGGTNKRAPWTPARFSGSLLGGKAALTLSGAQAEDEADYYCALWYSNLWVFGGGTKLTVLRTVAAPSVDIFPPSDEQLKSGTASVVCLLNNFYPREAKVQWKVDNALQSGNSCESVTEQDSKDSTYSLSSTLTLSKADYEKHKVYACEVTHQGLSSPVTKSFNRGES
notes: First polypeptide: VH1(GPRC5D, humanized)-CH1a-Fc; Second and fifth polypeptides are identical: VL(GPRC5D, humanized)-CLa; Third polypeptide: VH2(CD3)-CH1b-Fc; Fourth polypeptide: VH3(GPRC5D, humanized)-CH1a-linker-VL2(CD3)-CLb; Fc mutations are knob-into-hole (T366W; Y407V, T366S, L368A)
How did the EC50 [12] turn out when B3 was run?
The EC50 was 10.1 nM.

And the Kd [13]?
The Kd was 30 nM.

And the koff [13]?
The koff was 0.00381 s⁻¹.

And the kon [13]?
Its kon is 127000 M⁻¹ s⁻¹.

What about the EC50 (human GPRC5D on cells [14]) of the same binder?
The EC50 was 3.86 nM.

And the Kd [15]?
Its Kd is 9.47 nM.

What about the koff [15] of the same binder?
The koff was 0.000596 s⁻¹.

And the kon [15]?
Its kon is 62900 M⁻¹ s⁻¹.

B4: humanized antibody 22Mono5JO4 (antibody, human IgG1, V domains shown)
VH: QVQLVQSGAEVKKPGSSVKVSCRASGYPFTNYWMHWVRQAPGQGLEWIGEINPSNGRTNYNEKFKSRATLTLDKLTSTAYMELSSLTSEDTALYYCARGFAYWGQGTLVTVSS
VL: EIVLTQSPGTLSLSPGERATLSCSASSSVSFMHWYQQKPGQAPRRWIYDTTKLASGIPDRFSGSGSGTDYTLTISRLEPEDFAVYYCQQWNSHPLTFGQGTTVEIK
B4 was tested. Which Kd [11] did it give?
Its Kd is 0.787 nM.

And the koff [11]?
The koff was 0.000119 s⁻¹.

What about the kon [11] of the same binder?
Its kon is 151000 M⁻¹ s⁻¹.

B5: humanized antibody 22Mono3L7F (antibody, human IgG1, V domains shown)
VH: EVTLKESGPVLVKPTETLTLTCTASGYPFTNYWMHWVRQPPGKALEWIGEINPSNGRTNYNEKFKSRATLSLDKSKSQAVLTMTNMDPVDTATYYCARGFAYWGQGTLVTVSS
VL: B4 VL with G9A, D59A, R76S, T102K, V103L
notes: also called 22monoO3L7
With B5 as the binder, how does the Kd [11] read?
Its Kd is 25.6 nM.

And the koff [11]?
The koff was 0.002 s⁻¹.

And the kon [11]?
The kon was 78000 M⁻¹ s⁻¹.

B6: humanized antibody 22Mono4DN4 (antibody, human IgG1, V domains shown)
VH: ELVQSGAEVKKPGSSVKVSCKASGYPFTNYWMHWVRQAPGQGLEWIGEINPSNGRTNYNEKFKSRATLTLDKSTSTAYMELSSLRSEDTAVYYCARGFAYWGQGTLVTVSS
VL: B4 VL with G9A, I57V, D59A, R76S, T102K
Which results are given for B6?
Kd [11]: 16.9 nM; koff [11]: 0.00114 s⁻¹; kon [11]: 67300 M⁻¹ s⁻¹
